Key:
Jak2 = Jak2 (UniProt O60674); assay: phosphorylation enrichment, bacterial display (enrichment ratio); higher = better substrate or ligand; peptides without Tyr show the background
EPHB1 = EPHB1 (UniProt P54762); assay: as above
c-Src = assay: as above
Fyn = Fyn (UniProt P06241); assay: as above
EPHB2 = EPHB2 (UniProt P29323); assay: as above
AncSZ = assay: as above
Fer (mouse) = assay: as above
MERTK = MERTK (UniProt Q12866); assay: as above
c-Abl (mouse) = assay: as above
Fes = Fes (UniProt P07332); assay: as above
FGFR3 = FGFR3 (UniProt P22607); assay: as above
Hck = Hck (UniProt P08631); assay: as above
FGFR1 = FGFR1 (UniProt P11362); assay: as above
Grb2 SH2 = Grb2 SH2 (UniProt P62993); assay: SH2 binding enrichment of the phosphorylated peptide, bacterial display (enrichment ratio); higher = better substrate or ligand; peptides without Tyr show the background
SHP2-C SH2 = assay: as above
c-Src SH2 = assay: as above
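Throughout, for SH2 binding enrichment of the phosphorylated peptide, bacterial display: peptide library displayed on the E. coli surface as eCPX fusions, selected cells deep-sequenced, score is each peptide's frequency after selection divided by its frequency in the input.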
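Throughout, for phosphorylation enrichment, bacterial display: 11-residue human phosphosite peptides and single-mutation variants displayed on the E. coli surface, counted by deep sequencing, each peptide's frequency after selection divided by its frequency in the unselected input library; frequency after pTyr selection over input frequency; kinase dosed for 20-30% of maximal phosphorylation in three min.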

Sequence of EPHB2 (P29323 whole entry, looked up): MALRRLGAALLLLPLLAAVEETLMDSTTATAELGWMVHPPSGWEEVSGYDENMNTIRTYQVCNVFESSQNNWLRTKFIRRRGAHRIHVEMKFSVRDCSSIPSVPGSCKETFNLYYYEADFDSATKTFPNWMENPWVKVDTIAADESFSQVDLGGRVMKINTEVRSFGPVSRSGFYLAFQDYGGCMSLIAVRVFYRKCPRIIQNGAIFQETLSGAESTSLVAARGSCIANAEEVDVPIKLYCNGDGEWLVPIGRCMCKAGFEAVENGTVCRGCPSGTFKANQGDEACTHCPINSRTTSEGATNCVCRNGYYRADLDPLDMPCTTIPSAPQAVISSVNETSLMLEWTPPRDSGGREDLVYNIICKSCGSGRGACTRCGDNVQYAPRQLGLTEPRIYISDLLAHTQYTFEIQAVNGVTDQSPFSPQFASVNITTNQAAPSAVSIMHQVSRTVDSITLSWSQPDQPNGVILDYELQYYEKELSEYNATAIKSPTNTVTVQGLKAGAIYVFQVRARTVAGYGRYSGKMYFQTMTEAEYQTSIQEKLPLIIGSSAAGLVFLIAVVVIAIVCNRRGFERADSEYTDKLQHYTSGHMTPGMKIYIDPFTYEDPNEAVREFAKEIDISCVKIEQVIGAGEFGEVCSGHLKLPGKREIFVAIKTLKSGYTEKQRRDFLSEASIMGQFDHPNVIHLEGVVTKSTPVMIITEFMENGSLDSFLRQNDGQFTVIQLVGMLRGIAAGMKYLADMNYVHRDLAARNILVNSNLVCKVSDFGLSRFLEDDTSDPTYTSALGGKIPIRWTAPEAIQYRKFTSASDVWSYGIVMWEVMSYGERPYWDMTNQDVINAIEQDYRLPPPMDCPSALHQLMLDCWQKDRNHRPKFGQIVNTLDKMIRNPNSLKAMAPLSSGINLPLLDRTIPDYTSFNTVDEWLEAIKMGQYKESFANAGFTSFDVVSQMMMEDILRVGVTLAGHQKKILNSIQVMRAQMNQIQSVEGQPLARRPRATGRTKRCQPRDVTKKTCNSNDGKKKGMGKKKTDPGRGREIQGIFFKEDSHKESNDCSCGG
Sequence of FGFR3 (P22607 whole entry, looked up): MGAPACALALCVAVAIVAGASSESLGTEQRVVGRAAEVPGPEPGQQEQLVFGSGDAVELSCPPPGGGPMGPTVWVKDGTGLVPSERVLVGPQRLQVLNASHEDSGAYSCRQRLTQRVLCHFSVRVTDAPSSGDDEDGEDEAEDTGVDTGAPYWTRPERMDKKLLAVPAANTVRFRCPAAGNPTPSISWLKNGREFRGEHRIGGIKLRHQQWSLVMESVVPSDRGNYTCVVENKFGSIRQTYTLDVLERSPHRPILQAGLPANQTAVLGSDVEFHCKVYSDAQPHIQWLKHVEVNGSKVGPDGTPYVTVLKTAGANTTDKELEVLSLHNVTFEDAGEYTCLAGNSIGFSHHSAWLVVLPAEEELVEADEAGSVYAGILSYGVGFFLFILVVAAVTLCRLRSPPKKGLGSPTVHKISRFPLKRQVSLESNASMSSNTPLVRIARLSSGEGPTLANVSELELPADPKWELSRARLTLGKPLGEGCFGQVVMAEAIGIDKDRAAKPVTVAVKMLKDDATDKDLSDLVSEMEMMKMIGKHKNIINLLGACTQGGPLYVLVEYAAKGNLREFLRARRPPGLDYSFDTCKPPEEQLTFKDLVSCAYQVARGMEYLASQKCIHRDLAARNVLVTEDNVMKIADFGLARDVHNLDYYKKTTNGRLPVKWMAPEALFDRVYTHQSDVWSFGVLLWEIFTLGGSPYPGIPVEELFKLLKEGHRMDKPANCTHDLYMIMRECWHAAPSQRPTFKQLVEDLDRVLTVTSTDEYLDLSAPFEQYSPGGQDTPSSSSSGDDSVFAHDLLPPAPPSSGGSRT
Sequence of EPHB1 (P54762 whole entry, looked up): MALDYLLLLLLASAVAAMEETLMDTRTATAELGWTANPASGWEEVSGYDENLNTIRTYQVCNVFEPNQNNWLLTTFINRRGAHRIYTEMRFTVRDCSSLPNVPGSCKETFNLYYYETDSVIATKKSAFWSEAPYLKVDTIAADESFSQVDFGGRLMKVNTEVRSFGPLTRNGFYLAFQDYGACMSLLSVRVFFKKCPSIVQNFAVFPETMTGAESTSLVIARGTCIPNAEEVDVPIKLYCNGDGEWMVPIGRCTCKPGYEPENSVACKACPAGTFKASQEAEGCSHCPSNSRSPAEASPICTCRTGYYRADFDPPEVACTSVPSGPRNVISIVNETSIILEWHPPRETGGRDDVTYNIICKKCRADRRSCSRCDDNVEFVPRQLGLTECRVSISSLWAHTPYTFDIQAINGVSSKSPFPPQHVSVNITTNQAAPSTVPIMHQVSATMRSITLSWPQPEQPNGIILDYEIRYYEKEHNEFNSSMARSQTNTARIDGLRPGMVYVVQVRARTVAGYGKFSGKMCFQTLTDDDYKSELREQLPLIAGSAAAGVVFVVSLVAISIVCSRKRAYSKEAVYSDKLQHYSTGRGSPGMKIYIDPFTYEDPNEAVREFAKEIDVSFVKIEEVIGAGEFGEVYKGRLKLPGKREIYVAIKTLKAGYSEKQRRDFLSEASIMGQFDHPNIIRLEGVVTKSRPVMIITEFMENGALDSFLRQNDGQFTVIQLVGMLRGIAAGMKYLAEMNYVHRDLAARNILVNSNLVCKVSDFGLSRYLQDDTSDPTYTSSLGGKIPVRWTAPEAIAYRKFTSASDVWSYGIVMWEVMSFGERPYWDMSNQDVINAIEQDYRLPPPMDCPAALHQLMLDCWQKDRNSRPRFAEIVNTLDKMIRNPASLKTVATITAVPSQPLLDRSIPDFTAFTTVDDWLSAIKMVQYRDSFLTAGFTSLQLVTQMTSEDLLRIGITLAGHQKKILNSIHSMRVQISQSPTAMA
Sequence of Hck (P08631 whole entry, looked up): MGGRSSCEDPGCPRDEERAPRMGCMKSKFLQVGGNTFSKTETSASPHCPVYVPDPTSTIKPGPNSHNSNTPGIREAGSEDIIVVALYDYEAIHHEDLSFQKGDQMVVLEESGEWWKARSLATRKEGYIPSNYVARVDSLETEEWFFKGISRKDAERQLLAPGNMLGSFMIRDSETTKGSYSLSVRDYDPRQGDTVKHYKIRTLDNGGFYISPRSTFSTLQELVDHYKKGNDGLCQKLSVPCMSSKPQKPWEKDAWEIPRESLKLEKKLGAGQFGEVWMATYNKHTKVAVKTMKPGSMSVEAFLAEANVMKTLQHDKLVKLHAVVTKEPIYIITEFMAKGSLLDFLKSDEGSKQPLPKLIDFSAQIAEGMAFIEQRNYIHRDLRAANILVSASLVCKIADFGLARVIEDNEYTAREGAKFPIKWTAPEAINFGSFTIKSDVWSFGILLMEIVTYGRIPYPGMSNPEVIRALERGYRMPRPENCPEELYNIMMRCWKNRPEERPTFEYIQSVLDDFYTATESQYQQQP
Sequence of Jak2 (O60674 whole entry, looked up): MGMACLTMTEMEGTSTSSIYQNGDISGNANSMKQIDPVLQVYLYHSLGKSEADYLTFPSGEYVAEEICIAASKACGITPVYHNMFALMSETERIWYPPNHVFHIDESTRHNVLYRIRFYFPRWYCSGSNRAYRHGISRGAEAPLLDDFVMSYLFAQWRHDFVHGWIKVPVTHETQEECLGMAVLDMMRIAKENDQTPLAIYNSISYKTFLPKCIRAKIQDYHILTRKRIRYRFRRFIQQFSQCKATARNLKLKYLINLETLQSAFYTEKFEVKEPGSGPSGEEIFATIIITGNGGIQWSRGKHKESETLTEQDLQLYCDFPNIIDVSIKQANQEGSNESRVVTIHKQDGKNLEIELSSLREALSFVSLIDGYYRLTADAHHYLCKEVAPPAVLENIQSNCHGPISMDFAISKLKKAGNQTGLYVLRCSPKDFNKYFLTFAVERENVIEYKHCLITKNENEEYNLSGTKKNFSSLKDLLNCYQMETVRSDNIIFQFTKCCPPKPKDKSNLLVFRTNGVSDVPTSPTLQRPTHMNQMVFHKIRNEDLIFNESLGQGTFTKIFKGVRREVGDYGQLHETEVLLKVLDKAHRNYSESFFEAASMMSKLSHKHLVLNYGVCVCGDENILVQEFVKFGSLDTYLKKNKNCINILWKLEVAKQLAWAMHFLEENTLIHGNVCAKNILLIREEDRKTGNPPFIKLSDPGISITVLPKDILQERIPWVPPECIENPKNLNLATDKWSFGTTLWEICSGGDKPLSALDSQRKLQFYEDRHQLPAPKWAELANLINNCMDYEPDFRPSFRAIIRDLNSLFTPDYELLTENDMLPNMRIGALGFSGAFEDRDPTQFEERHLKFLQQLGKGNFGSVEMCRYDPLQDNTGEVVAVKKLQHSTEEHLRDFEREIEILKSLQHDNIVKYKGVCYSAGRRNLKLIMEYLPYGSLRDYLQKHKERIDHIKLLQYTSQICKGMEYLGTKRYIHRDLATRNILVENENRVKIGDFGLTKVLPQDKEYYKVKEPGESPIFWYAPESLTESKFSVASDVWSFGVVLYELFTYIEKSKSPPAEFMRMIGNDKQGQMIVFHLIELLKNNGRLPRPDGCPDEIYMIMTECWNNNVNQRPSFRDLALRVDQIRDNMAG
Sequence of Fyn (P06241 whole entry, looked up): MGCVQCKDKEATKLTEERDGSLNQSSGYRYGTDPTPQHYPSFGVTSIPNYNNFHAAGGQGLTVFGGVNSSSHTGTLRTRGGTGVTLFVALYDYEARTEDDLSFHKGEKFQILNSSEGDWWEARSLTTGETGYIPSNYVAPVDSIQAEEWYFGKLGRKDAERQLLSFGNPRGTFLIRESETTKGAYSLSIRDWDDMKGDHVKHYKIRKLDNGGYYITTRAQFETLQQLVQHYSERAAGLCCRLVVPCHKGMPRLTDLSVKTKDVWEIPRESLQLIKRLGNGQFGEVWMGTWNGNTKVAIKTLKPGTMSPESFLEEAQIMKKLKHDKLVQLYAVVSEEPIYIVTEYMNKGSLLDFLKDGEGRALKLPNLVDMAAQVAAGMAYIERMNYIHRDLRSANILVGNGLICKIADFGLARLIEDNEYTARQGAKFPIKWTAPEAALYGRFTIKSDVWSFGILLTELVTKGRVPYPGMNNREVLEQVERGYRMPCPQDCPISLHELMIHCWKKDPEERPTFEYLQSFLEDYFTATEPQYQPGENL

SH2 binding enrichment (Grb2 SH2) | SH2 binding enrichment (SHP2-C SH2) | SH2 binding enrichment (c-Src SH2) | Sequence | phosphorylation enrichment (Jak2) | phosphorylation enrichment (EPHB1) | phosphorylation enrichment (c-Src) | phosphorylation enrichment (Fyn) | phosphorylation enrichment (EPHB2) | phosphorylation enrichment (AncSZ) | phosphorylation enrichment (Fer (mouse)) | phosphorylation enrichment (MERTK) | phosphorylation enrichment (c-Abl (mouse)) | phosphorylation enrichment (Fes) | phosphorylation enrichment (FGFR3) | phosphorylation enrichment (Hck) | phosphorylation enrichment (FGFR1)
0.745 | 1.01 | 0.806 | PPVVNYEEDAR [FER_Y402] | 1.4 | 0.957 | 0.534 | 0.896 | 0.892 | 1.26 | 0.585 | 0.856 | 0.824 | 1.86 | 0.968 | 0.64 | 0.569
1.04 | 0.948 | 0.842 | PRIKTYMRPSP [TDP1_Y497_H493R] | 0.49 | 0.317 | 0.474 | 0.366 | 0.465 | 0.493 | 0.378 | 0.44 | 0.425 | 0.65 | 0.522 | 0.36 | 0.451
0.944 | 0.622 | 0.632 | PSARTYCFKQE [KLHDC9_Y175_YF] | 0.624 | 0.386 | 0.494 | 0.622 | 0.595 | 0.743 | 0.415 | 0.429 | 0.491 | 0.802 | 0.571 | 0.413 | 0.469
0.72 | 0.455 | 0.49 | PSGPAYRGAVP [ASAH1_Y43_T42A] | 0.736 | 0.74 | 0.506 | 0.539 | 0.431 | 0.664 | 0.533 | 0.476 | 0.758 | 0.759 | 0.423 | 0.459 | 0.809
0.64 | 0.774 | 1.7 | PSPMPYAFCQM [FOXL2_Y215_S217F] | 1.75 | 1.3 | 1.99 | 0.706 | 1.28 | 1.87 | 9.08 | 1.41 | 1.44 | 2.17 | 2.31 | 0.934 | 2.61
0.976 | 0.899 | 0.746 | PSRKDYETYQS [CTNND2_Y1154_P1159S] | 0.94 | 0.827 | 0.948 | 0.543 | 1.03 | 0.875 | 0.55 | 0.474 | 0.729 | 1.17 | 0.704 | 0.764 | 0.539
1.01 | 0.716 | 0.642 | PTDCVYVMPTV [MYO7A_Y1668_S1666C] | 1.1 | 3.34 | 4.95 | 8.41 | 2.4 | 5.31 | 1.08 | 6.63 | 7.37 | 1.06 | 3.92 | 4.49 | 5
0.911 | 0.683 | 0.429 | PTDSVYVMPTV [MYO7A_Y1668] | 0.827 | 1.15 | 4.43 | 8.58 | 0.708 | 2.78 | 0.77 | 8.35 | 3.01 | 0.926 | 1.68 | 3.43 | 2.32
1.07 | 0.617 | 0.721 | PTKNDYWAMLA [WWOX_Y287] | 1.12 | 1.78 | 0.912 | 0.695 | 1.61 | 1.64 | 0.447 | 0.443 | 0.939 | 1.5 | 4.3 | 0.705 | 7.82
0.714 | 0.734 | 0.496 | PTTKTYFPHFA [HBA1_Y43_D48A] | 0.469 | 0.572 | 0.781 | 0.798 | 0.386 | 0.796 | 0.384 | 0.675 | 0.646 | 0.724 | 0.599 | 0.754 | 0.313
19.9 | 0.728 | 2.96 | PTYENYANSTQ [SLC12A3_Y70_H69N] | 0.518 | 4.39 | 5.43 | 4.03 | 3.36 | 1.06 | 0.69 | 0.927 | 0.418 | 0.743 | 0.555 | 2.12 | 0.593
0.927 | 0.797 | 0.971 | PVADPYDQSFE [MAPK14_Y323] | 2.29 | 0.695 | 0.982 | 0.828 | 0.632 | 1.66 | 0.759 | 0.894 | 2.38 | 1.86 | 0.896 | 0.989 | 0.941
0.722 | 0.576 | 0.552 | PVDVAYRHGFF [PLEC_Y2967_R2969H_YF] | 0.511 | 0.32 | 0.325 | 0.324 | 0.268 | 0.482 | 0.342 | 0.366 | 0.473 | 0.85 | 0.458 | 0.553 | 0.574
0.916 | 0.543 | 0.475 | QADIIYVNTQL [MERTK_Y872_V870I] | 1.05 | 1.18 | 1.24 | 1.09 | 0.518 | 1.28 | 4.18 | 0.571 | 1.02 | 1.29 | 0.84 | 0.886 | 0.712
0.857 | 0.732 | 6.19 | QDGYSYPSRQM [LDLR_Y847] | 1.17 | 0.49 | 0.734 | 0.624 | 0.576 | 1.98 | 0.557 | 0.983 | 0.663 | 1.21 | 0.87 | 0.475 | 0.88
0.603 | 4.46 | 2.36 | QDRTFYERVRT [SPEN_Y633_S635R_YF] | 0.509 | 0.416 | 0.402 | 0.403 | 0.42 | 0.583 | 3.63 | 0.539 | 0.582 | 0.591 | 0.441 | 1.2 | 0.529

Source: the supplement of paper PMC10065799, “High-throughput profiling of sequence recognition by tyrosine kinases and SH2 domains using bacterial peptide display” (eLife, 2023)
